“Also recorded” adds a separate entry of the source.
B1: FAO-Q1: fructosylamine oxidase from Fusarium proliferatum GL2-1, Resource Q fraction Q1; amino acid sequence SEQ ID NO: 4 (protein, listed as Fusarium proliferatum)
chain: MAGPPSSILIVGSGVFGLGTAWALAKRSHFSNTSITVVDDCAGQFPPEDAASVDSSRIVRADYSDPYYAALAAEAQKEWRKQGDHEVGGQGRYSESGFVLCASETPEDFKLKKSGMDYTKESAKNVELIAKETGLPVDKIQKLESTKALQEFLGTDGYPGDWGYLNGNSGWADAGEGMKWLYKQAQATGRIHFVNGKVTELVTEGDRVIGAKLSDSKILKADVVMVAAGAWSGSLVDLRGRTEATGHAVAYMDITPEEQKRLDNFPVVLNLSTGLFLIPPRNNVLKAARHTFGYINPVKINNALPPSPNDKREPFIASQPYTSRNDSSNPLTVEADKDLRRALTDLCPIRGLETRPWKEARICWYSDTRDGEWLIDYHPGWKGLFVATGDSGHGFKFLPNLGEKIVDVMQGQGGKLGEKWRWKEIQNDGVGRETNGVYTGLVTEDGSRGGRPLVLCDELEKGRALIGNTKAKL
B2: FAO-Q2: fructosylamine oxidase from Fusarium proliferatum GL2-1, Resource Q fraction Q2; amino acid sequence SEQ ID NO: 6 (protein, listed as Fusarium proliferatum)
chain: MARTVAPLNKDSGILIVGGGTWGCSTALHLARRGYTNVTVLDVNRIPSPISAGHDVNKLSNRLGTSDSKGDDEDSIWKALTYAAAQGWLHDPIFQPFCHNTGAVMAGSTPKSIKQLVEDEIGDDIDQYTPLNTAEDFRRTMPERILTGDFLGWKGFYKPRGSGWVHARKAMKAAFEESQRLGVKFITGSPEGKVESLVFEAGDVKGAKTADGKEHRADRTILSAGASAEFSLDFENQIRPTAWTLGHIQMTAEETKLYKELPPLFNINQGFFMEPDEDLHQLKMCDEHPGYCNWVDKPGSKYPQSIPFAKYQVPIEAERRMKQFLKDIMPQLADRPLVHARICWCADTQDRMFLITYHPRHPSLVIASGDCGTGYKHITSIGKFISDCMEGTLEERFAKFWRWRPEKFTEFWGKDPLDRFGADDKIMDLPKSDAEGWTDIQNDK

What was measured:
FAO-Q2 = test: Substrate specificity of FAO-Q2 (FAO activity, rate method, H2O2 colorimetry); format: biochemical, Fusarium proliferatum; conditions: for Relative activity (%) FAO-Q2: activity of FAO-Q2 on the substrate, FV = 100
Experimental: (§1) Titration of enzyme can be performed by a method known in the art (e.g., kinetic method), for example, that described in Example 1 (3). In this method, hydrogen peroxide generated by the reaction of an FAO with a glycated amino acid or peptide is measured on the basis of absorbance (505 nm) of quinone pigment produced in the presence of hydrogen peroxide. The amount (μmole) of hydrogen peroxide generated per minute is calculated on the basis of molar absorptivity (5.16×10^3 M^−1 cm^−1) of quinone pigment and the resultant numerical value is taken as a unit (U) of enzyme activity.
(§2) FAO activity of the crude enzyme solution was determined by the aforementioned rate method. The time-course of generation of hydrogen peroxide in the reaction mixture below was measured by a colorimetric method, and FAO activity was evaluated.
(§3) A mixture (total 3 ml) except for the enzyme solution was equilibrated at 30° C. After adding the enzyme solution, the time-course of absorbance at 505 nm was measured. The amount (μmole) of hydrogen peroxide generated per minute was calculated on the basis of molar absorptivity (5.16×10^3 M^−1 cm^−1) of quinone pigment produced, and the resultant numerical value was taken as a unit(U) of enzyme activity. As a result, a strain having FAO was obtained.
The substrate specificity of the enzymes (FAO-Q1, FAO-Q2) contained in 2 fractions separated in (1), 3) above was determined. The FAO activity was measured using the respective two fractions as an enzyme solution according to the method described in Example 1(3). As a substrate, FV, FVH, FVHL, FVL, FVLS and FZL were used.

[1] = test system: O=C(N[C@@H](CCCCNCC1(O)OC[C@@H](O)[C@@H](O)[C@@H]1O)C(=O)O)OCc1ccccc1; test: cells, lysate or membranes named; conditions: other: substrate FV or FZL; 30.0 °C
Excerpt: Michaelis constant for respective substrates can be determined by measuring the initial reaction rate in the process for determination of titer as described above while keeping the conditions regarding enzyme concentration, pH, temperature, and the like constant and changing only the concentration of substrate.

[2] = test system: CC(C)[C@H](NCC1(O)OC[C@@H](O)[C@@H](O)[C@@H]1O)C(=O)O; test: cells, lysate or membranes named; conditions: other: substrate FV or FZL; 30.0 °C
FAO-Q1 = FAO-Q1 (Fusarium proliferatum, UniProt A0A1L7VP54); test: Substrate specificity of FAO-Q1 (FAO activity, rate method, H2O2 colorimetry); format: biochemical
Experimental: as §1, §2
A mixture (total 3 ml) except for the enzyme solution was equilibrated at 30° C. After adding the enzyme solution, the time-course of absorbance at 505 nm was measured. The amount (μmole) of hydrogen peroxide generated per minute was calculated on the basis of molar absorptivity (5.16×10^3 M^−1 cm^−1) of quinone pigment produced, and the resultant numerical value was taken as a unit(U) of enzyme activity. […]
The substrate specificity of the enzymes (FAO-Q1, FAO-Q2) contained in 2 fractions separated in (1), 3) above was determined. […]

[3] = Determination of optimum pH of the enzyme reaction; format: biochemical, Fusarium proliferatum; conditions: pH 3.5-10.0 tested, at 30° C.
Experimental: Enzyme reaction was conducted under different pH conditions between 3.5 and 10.0 according to the method for determination of activity as described above.
The buffers used were 100 mM acetate buffer at pH range of 3.5-6.0, 100 mM potassium phosphate buffer at pH range of 6.0-8.0, 100 mM Tris-HCl buffer (pH range of 7.0-9.0) and 100 mM glycin-NaOH buffer at pH range of 9.0-10.0.

[4] = FAO activity of Resource Q fractions using FV as a substrate; format: biochemical, Fusarium proliferatum; conditions: Resource Q fraction
Experimental: as §2, §3
The ammonium sulfate fraction after dialysis was subjected to chromatography under the following conditions.
Measurement of activity was performed in a similar manner to that described in Example 1 (3). FAOs contained in these fractions are herein referred to as “FAO-Q1” and “FAO-Q2”.

[5] = Determination of optimum temperature for stability of enzyme; format: physicochemical, Fusarium proliferatum; conditions: incubated in 0.1 M Tris-HCl buffer (pH 8.0) at 30-65° C. for 10 minutes
Experimental: Temperature conditions for the enzyme were determined by incubating FAO-Q1 or FAO-Q2 in 0.1 M Tris-HCl buffer (pH 8.0) at a temperature between 30 and 65° C. for 10 minutes, and measuring the activity under normal conditions.

| Molecule | Relative activity (%) FAO-Q2 (FAO-Q2) | Activity of FAO-Q2 on the substrate (in words) (FAO-Q2) | Optimum pH for enzyme reaction [3] | specific activity(U/mg) [4] | Optimum temperature for stability of enzyme [5] | other results |
| --- | --- | --- | --- | --- | --- | --- |
| fructosyl valine-leucine-serine (VLS) [FVLS] | 3.3% | – | – | – | – | – |
| FAO-Q1 (Fusarium proliferatum ET1) | – | – | – | – | – | Km [1]: 560 µM; Km [2]: 620 µM |
| fructosyl valine-histidine-leucine (VHL) [FVHL] | 0.6% | active | – | – | – | – |
| O=C(N[C@@H](CCCCNCC1(O)OC[C@@H](O)[C@@H](O)[C@@H]1O)C(=O)O)OCc1ccccc1 (stereo partly shown) [FZL] | – | inactive and not | – | – | – | Activity of FAO-Q1 on the substrate (in words) (FAO-Q1): almost equally active; also recorded: almost the same activity; Relative activity (%) FAO-Q1 (FAO-Q1; activity of FAO-Q1 on the substrate, FV = 100): 108% |
| B1 | – | – | about 7.5 | 0.3 U/mg | 30-40 °C | Optimum pH for enzyme reaction ([3]; listed as FAO-O 1): 7.5 |
| B2 | – | – | about 7.0 | 0.067 U/mg | 30-40 °C | Optimum pH for enzyme reaction ([3]; listed as FAO-O2): 7 |
